{"source": "paper PMC12566272", "target": "T1, FucR (Cj0480c), IclR-type regulator (Campylobacter jejuni NCTC 11168) (UniProt Q0PB33)", "T1 sequence": "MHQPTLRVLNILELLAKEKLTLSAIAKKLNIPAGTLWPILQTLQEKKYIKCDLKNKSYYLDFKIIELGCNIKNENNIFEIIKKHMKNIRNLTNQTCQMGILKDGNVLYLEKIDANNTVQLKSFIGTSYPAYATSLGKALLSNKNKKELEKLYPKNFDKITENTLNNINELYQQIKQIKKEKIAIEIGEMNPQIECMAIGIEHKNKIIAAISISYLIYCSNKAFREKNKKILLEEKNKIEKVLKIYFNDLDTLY", "test": "EMSA", "details": "50 mM Tris-HCl, 150 mM KCl, 10 mM MgCl2, pH 7.4, room temperature, 1 h; 4-20% gradient PAGE"}
{"sequence": "GCTGATGCATATTGTCTTTATCCTTATTTTATTTTTATAAATTTTAGCATATTTTTTACTTTTAGTAACATAAAATCATAATTTTTATTATTTATTAATTTTAATATTTTTTTTGTAAAAATTGGCAGTTAATAAGAATAAAATACGAATTTTTACCAAGTTAACAGCTTGATTTTTTTACAAATATTTTGTTATATTTTTTGTATATAAATATATTTTTGTATATACGAAAGGAAAAAAATGGGAATTTTAAAAGGAACTTTACCGGCTTTACTTAC (double strand) [PR2 (fucose operon) promoter fragment]", "values": [{"measurement": "binding", "value": "binds"}]}
